Laboratory results from patent publication US20180186871A1 (SINGAPORE HEALTH SERVICES PTE, published 2018).

T1: human IL-11 (human, UniProt P20809 22-199)
T1 sequence (looked up): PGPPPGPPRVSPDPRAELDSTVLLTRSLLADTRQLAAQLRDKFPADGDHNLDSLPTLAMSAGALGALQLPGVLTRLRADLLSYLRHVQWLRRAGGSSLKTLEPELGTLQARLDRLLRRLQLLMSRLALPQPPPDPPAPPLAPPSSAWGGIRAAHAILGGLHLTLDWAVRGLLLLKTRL


target: T1, human IL-11; assay: cell-based or functional assay
Further: test concentration or dose not given here.

Row | Binder | MMP2 production (ng/ml), TGFB1-stimulated human atrial fibroblasts, Experiment 1 (NEG 42.7, POS 70.2) [ng/mL] | MMP2 production (ng/ml), TGFB1-stimulated human atrial fibroblasts, Experiment 2 (NEG 36.2, POS 62.3) [ng/mL]
1 | YU100-H06 (scFv, not shown: a dimerising Fc or GST) scFv: QVQLVESGGGVVQPGRSLRLSCAASGFTFSSYGMHWVRQAPGKGLEWVAVISYDGSNKYYADSVKGRFTISRDNSKNTLYLQMNSLRAEDTAVYYCAKIGATDPLDYWGQGTLVTVSSGSASAPKLEEGEFSEARIQSALTQPRSVSGSPGQSVTISCTGTSSDVGGYNYVSWYQQHPGKAPKLMIYDVTKRPSGVPDRFSGSKSGNTASLTISGLQAEDEADYYCSSYAGSYTWVFGGGTKLTVL | 52.3 | 43.9
2 | YU100-H11 (scFv, not shown: a dimerising Fc or GST) scFv: QVQLVQSGGGVVQPGRSLRLSCAASGFTFSSYGMHWVRQAPGKGLEWVAVISYDGSNKYYADSVKGRFTISRDNSKNTLYLQMNSLRAEDTAVYYCAKIGATDPLDYWGQGTLVTVSSGSASAPKLEEGEFSEARVQSALTQPASVSGSPGQSITISCTGTSSDVGGYNYVSWYQQHPGKAPKLMIYDVSNRPSGVSNRFSGSKSGNTASLTISGLQAEDEADYYCCSYAGSYTWVFGGGTKLTVL | 53.7 | 45.5
3 | YU100-B03 (scFv) scFv: QVQLVQSGGGVVQPGRSLRLSCAASGFTFSSYGMHWVRQAPGKGLEWVAVISYDGSNKYYADSVKGRFTISRDNSKNTLYLQMNSLRAEDTAVYYCAKIGATDPLDYWGQGTLVTVSSGSASAPKLEEGEFSEARVQSVLTQPRSVSGSPGRSVTISCTGTSSDVGGYNYVSWYQQHPGKAPKLTLYDVVKRPSGVPDRYSGSKSGNTASLTISGLQAEDEADYYCCSYAGGYTWVFGGGTKVTVV | 47.3 | 46.8
4 | YU100-F02 (scFv) scFv: EVQLVESGGGVVQPGRSLRLSCAASGFTFSSYGMHWVRQAPGKGLEWVAVISYDGSNKYYADSVKGRFTISRDNSKNTLYLQMNSLRAEDTAVYYCAKIGATDPLDYWGQGTLVTVSSGSASAPKLEEGEFSEARVQSALTQPRSVSGSPGQSVTISCTGTSSDVGGYNYVSWYQQHPGKAPKLMIYDVTKRPSGVPDRFSGSKSGNTASLTISGLQADDEADYYCCSYAGSYTWIFGGGTKLTVL | 51.2 | 43.5
5 | YU100-B06 (scFv) scFv: QVQLVESGGGVVQPGRSLRLSCAASGFTFSSYGMHWVRQAPGKGLEWVAVISYDGSNKYYADSVKSRFTISRDNSKNTLYLQMNSLRAEDTAVYYCAKIGATDPLDYWGQGTLVTVSSGSASAPKLEEGEFSEARVQSALTQPASVSGSPGQSITISCTGTSSDVGGYNYVSWYQQHPGKAPKLMIYDVSKRPSGVPDRFSGSKSGNTASLTISGLQAEDEADYYCNSYAGSYTWVFGGGTKLTVL | 47.6 | 49.6
6 | YU100-E12 (scFv) scFv: QVQLVESGGGVVQPGRSLRLSCAASGFTFSSYGMHWVRQAPGKGLEWVAVISYDGSNKYYADSVKGRFTISRDNSKNTLYLQMNSLRAEDTAVYYCAKIGATDPLDYWGQGTLVTVSSGSASAPKLEEGEFSEARVQSALTQPASVSGSPGQSITISCTGTSSDVGGYNYVSWYQQHPGTAPKLMIYDVSNRPSGVSNRFSGSKSGNTASLTISGLQAEDEADYYCSSYTSSTTWVFGGGTKLTVL | 56 | 47.9
7 | YU100-B07 (scFv) scFv: QVQLVESGGGVVQPGRSLRLSCAASGFTFSSYGMHWVRQAPGKGLEWVAVISYDGSNKYYADSVKGRFTISRDNSKNTLYLQMNSLRAEDTAVYYCAKIGATDPLDYWGQGTLVTVSSGSASAPKLEEGEFSEARVQSALTQPRSVSGSPGQSVTMSCTGTSRDVGGYNYVSWYQHHPGKAPKLMIYDVSKRPSGVPDRFSGSKSGNTASLTISELQAEDEADYYCCSYAGSYTWVFGGGTKLTVL | 55.9 | 47.4
8 | YU100-G01 (scFv) scFv: QVQLVQSGGGVVQPGRSLRLSCAASGFTFSSYGMHWVRQAPGKGLEWVAVISYDGSNKYYADSVKGRFTISRDNSKNTLYLQMNSLRAEDTAVYYCAKIGATDPLDYWGQGTLVTVSSGSASAPKLEEGEFSEARVQSALTQPRSVSASPGQSVTISCTGTSSDVGAYNYVSWYQQHPGKAPKLMLYDVNKRPSGVPDRFSGSKSGNTASLTISRLQAEDEADYYCCSYAGSYTWVFGGGTKLTVL | 56.6 | 49.7
9 | YU100-H05 (scFv) scFv: QVQLVESGGGVVQPGRSLRLSCAASGFTFSSYGMHWVRQAPGKGLEWVAVISYDGSNKYYADSVKGRFTISRDNSKNTLYLQMNSLRAEDTAVYYCAKIGATDPLDYWGQGTLVTVSSGSASAPKLEEGEFSEARVQAVLTQPRSVSGSPGQSITISCTGTGSNVGGYNYVSWYQQHPGQAPKLMIYDVSKRPSGVPDRFSGSKSGNTASLTISGLQAEDEADYYCCSYAGTYTWVFGGGTKLTVL | 57.1 | 47.8
10 | YU100-A11 (scFv) scFv: EVQLQQSGGGVVQPGRSLRLSCAASGFTFSSYGMHWVRQAPGKGLEWVAVISYDGSNKYYADSVKGRFTISRDNSKNTLYLQMNSLRAEDTAVYYCAKIGATDPLDYWGQGTLVTVSSGSASAPKLEEGEFSEARVQSALTQPRSVSGSPGQSVTISCTGTSSDVGGYNYVSWYQQHPGKAPKLMIYDVSKRPSGVPDRFSGSKSGNTASLTISGLQAEDEADYYCCSYAGSYTWVFGGGTKLTVL | 51.6 | 45.7
11 | YU100-E10 (scFv) scFv: QVQLVQSGGGVVQPGRSLRLSCAASGFTFSSYGMHWVRQAPGKGLEWVAVISYDGSNKYYADSVKGRFTISRDNSKNTLYLQMNSLRAEDTAVYYCAKIGATDPLDYWGQGTLVTVSSGSASAPKLEEGEFSEARVQSALTQPRSVSGSPGQSVTISCTGTSSDVGGYNYVSWYQQHPGKAPKLMIFDVSQRPSGVPDRFSASKSGNTASLTISGLQAEDEADYYCCSYAGSYTWVFGGGTKLTVL | 56.1 | 47
12 | YU100-B01 (scFv) scFv: QVQLVQSGGGVVQPGRSLRLSCAASGFTFSSYGMHWVRQAPGKGLEWVAVISYDGSNKYYADSVKGRFTISRDNSKNTLYLQMNSLRAEDTAVYYCAKIGATDPLDYWGQGTLVTVSSGSASAPKLEEGEFSEARVQSALTQPRSVSGSPGQSVTISCTGTNTDVGAYNYVSWYQQYPGKAPKLIIYDVSKRPSGVPDRFSGSKSGNTASLTISGLQAEDEADYYCCSYAGSYSWVFGGGTKLTVL | 52.5 | 40
13 | YU112-B06 (scFv, not shown: a dimerising Fc or GST) scFv: QVQLVESGGGVVQPGRSLRLSCAASGFTFSSYGMHWVRQAPGKGLEWVAVISYDGSNKYYADSVKGRFTISRDNSKNTLYLQMNSLRAEDTAVYYCAKIGATDPLDYWGQGTLVTVSSGSASAPKLEEGEFSEARVQSALTQPASVSGSPGQSITISCTGTSSDVGGYNYVSWYQQHPGKAPKLMIYDVSNRPSGVSNRFSGSKSGNTASLTIFGLQAEDEADYYCSSYTSSSSWVFGGGTKLTVL | 49.7 | 43.9
14 | YU100-G09 (scFv) scFv: EVQLVESGGGVVQPGRSLRLSCAASGFTFSSYGMHWVRQAPGKGLEWVAVISYDGSNKYYADSVKGRFTISRDNSKNTLYLQMNSLRAEDTAVYYCAKIGATDPLDYWGQGTLVTVSSGSASAPKLEEGEFSEARVQSALTQPRSVSGSPGQSVTISCTGTISDVGGYNYVSWYQQHPGKAPKLMIYDVTKRPSGVPDRFSGSKSGNTASLTISGLQAEDEAGYYCSSYAGSYTWVFGGGTKLTVL | 59.9 | 47.5
15 | YU112-A07 (scFv, not shown: a dimerising Fc or GST) scFv: QVQLVESGGGVVQPGRSLRLSCAASGFTFSSYGMHWVRQAPGKGLEWVAVISYDGSNKYYTDSVKGRFTISRDNSKNTLYLQMNSLRAEDTAVYYCAKIGATDPLDYWGQGTLVTVSSGSASAPKLEEGEFSEARVQSALTQPRSVSGSPGQSVTISCTGTISDVGGYNYVSWYQQHPGKAPKLMIYDVTKRPSGVPDRFSGSKSGNTASLTISGLQAEDEAGYYCSSYAGSYTWVFGGGTELTVL | 50.7 | 45
16 | YU100-E07 (scFv) scFv: QVQLQESGGGVVQPGRSLRLSCAASGFTFSSYGMHWVRQAPGKGLEWVAVISYDGSNRYYADSVKGRFAISRDNSKNTLYLQMNSLRAEDTAVYYCAKIGATDPLDYWGQGTLVTVSSGSASAPKLEEGEFSEARVQSALTQPRSVSGSPGQSVTISCTGTSSDVGGYDYVSWYQQHPGKAPELMIYDVTKRPSGVADRFSGSKSGNTASLTISGLQAEDEADYYCCSYAGRYTWVFGGGTKLTVL | 52.1 | 46.5
17 | YU100-A12 (scFv) scFv: QVQLVESGGGVVQPGRSLRLSCAASGFTFSSYGMHWVRQAPGKGLEWVAVISYDGSNKYYADSVKGRFTISRDNSKNTLYLQMNSLRAEDTAVYYCAKIGATDPLDYWGQGTLVTVSSGSASAPKLEEGEFSEARVLPVLTQPRSVSGSPGQSVTISCTGTSSDVGGYNYVSWYQQHPGKAPKLMIYDVSKRPSGVPDRFSGSKSGDTASLTISGLQAEDEADYYCSSYAGSYTWVFGGGTKLTVL | 59.5 | 50.4
